Experimental data from the supplement of paper PMC10126150.
± gives the standard deviation of the averaged measurements.

System: ATP
Experiment: switch fluorescence ratio, 500 uM ATP over buffer (Cy3 cluster intensity, sum of 5 cycles each) (fold (ratio)); higher = stronger signal-on switching upon ATP binding; sequences stand for … in TCGTCGGCAGCGTCAGATGTGTATAAGAGACAGTTTTTTTTTTTTTTTTTTTTTTTTT…TC
Conditions: aptamer strand: ATP DNA aptamer (quencher-CACCTGGGGGAGTATTGCGGAGGAAGG + anchor), 100 nM annealed; ATP concentration: 500 uM
Procedure, shortened: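 Exposure to 500 uM ATP lasted 15 min at 22 °C before imaging, and a selection-buffer image was taken beforehand, for Cy3-labelled switching-strand clusters on a modified Illumina MiSeq flow-cell annealed to 100 nM quencher-labelled ATP aptamer. Five buffer/ATP cycles were run with NaOH stripping and re-annealing between them. The fluorescence ratio per cluster is summed target-cycle over summed buffer-cycle Cy3 intensity, averaged per switch-domain sequence. Clusters outside 100-1000 RFU were excluded.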

Row | Sequence | switch fluorescence ratio
1 | GGCCTATTCC | 1.04 ± 0.011
2 | GGCTGGCGGG | 0.99 ± 0.044
3 | GTCAGTATAA | 1.03 ± 0.059
4 | ACGTAACATG | 1.24 ± 0.015
5 | AGTGATATTT | 1.01 ± 0.042
6 | ATTAAATCAG | 1.013 ± 0.0058
7 | AATTTTCCAC | 1.02 ± 0.043
8 | GTGGACGG | 0.9733 ± 0.0022
9 | CGGGTTGCCT | 0.999 ± 0.028
10 | GATTTTTTAG | 0.998 ± 0.018
11 | GGGGATCGCC | 1.01 ± 0.03
12 | TTTTTTAGAA | 1.01 ± 0.025
13 | TACATAGGCA | 1.03 ± 0.035
14 | AGGGGGTGTC | 1.075 ± 0.0097
15 | TTCTTTACGG | 0.986 ± 0.026
16 | GCGGTTTTTT | 1.22 ± 0.35
17 | GGGCCGGGAG | 0.984 ± 0.02
18 | TTCATTTTTT | 1.02 ± 0.041
19 | TTGATTCATG | 0.999 ± 0.04
20 | CAGGTTTGTT | 1.12 ± 0.17
21 | ATGCCCAGCT | 1.0068 ± 0.00025
22 | AAAGAACGGG | 1.04 ± 0.023
23 | TAGCAGATCA | 0.994 ± 0.024
24 | ACTGGGGATG | 0.963 ± 0.043
25 | CGGGAATCCT | 1.11 ± 0.04

Row | Sequence | switch fluorescence ratio
26 | AAATTACAGT | 0.99493 ± 0.00079
27 | GTTTGGACAG | 1.007 ± 0.01
28 | TTAGAGGCCC | 1.01 ± 0.032
29 | TGTGATTTGT | 0.9702 ± 0.0032
30 | TGATGCATGG | 1.05 ± 0.048
31 | TTGTGTAAGC | 1.01 ± 0.038
32 | AAAAGTAGAA | 0.992 ± 0.023
33 | CATCGGGTAG | 0.996 ± 0.02
34 | TTCAGTGGTG | 0.965 ± 0.053
35 | TTTATTGA | 0.989 ± 0.013
36 | CTCGGACAAG | 0.9964 ± 0.0058
37 | ATTTTAGAGT | 1.018 ± 0.0063
38 | GATCCGGGGG | 0.988 ± 0.043
39 | TGGTAGGGAA | 0.982 ± 0.014
40 | TGGTAAAGTG | 1.08 ± 0.1
41 | AATCGCAACG | 1.02 ± 0.022
42 | ATCTATTATT | 1.012 ± 0.006
43 | GGGGCTTATG | 0.968 ± 0.0079
44 | CTGAAAAATT | 1.01 ± 0.078
45 | GAAGCAACCG | 1.384 ± 0.01
46 | TATGTTTGGG | 0.986 ± 0.034
47 | TGGTTCTCGA | 0.987 ± 0.012
48 | TTTATGAAGG | 1 ± 0.018
49 | ACACTCACCC | 1.57 ± 0.36
50 | CTAATCAAAT | 0.973 ± 0.019

Row | Sequence | switch fluorescence ratio
51 | CCCGAATATT | 1.06 ± 0.029
52 | GGCGGTTTGA | 0.969 ± 0.014
53 | TTTATCAAAA | 0.993 ± 0.012
54 | GGGCTAGTGT | 0.963 ± 0.01
55 | ACGCAGCTGT | 1.379 ± 0.0027
56 | TTAACGAACG | 1.15 ± 0.083
57 | CATGGTTTTG | 1 ± 0.023
58 | CGTGAATCTG | 0.9669 ± 0.006
59 | TAAGTGAGGG | 0.981 ± 0.018
60 | CAGGGTGCCA | 1.003 ± 0.0003
61 | TCTAGAGGGT | 1.01 ± 0.028
62 | CTCCATATGT | 1.039 ± 0.0016
63 | ATAGGCCGTA | 1.03 ± 0.045
64 | GGGTTCCGGC | 1.03 ± 0.098
65 | ATAACGTCGG | 0.9867 ± 0.0082
66 | ATGCGCAGAT | 1.046 ± 0.0063
67 | CCATTTTGCC | 0.9878 ± 0.00023
68 | TGGAATTCGG | 1.02 ± 0.0061
69 | CTGTATATTT | 0.9593 ± 0.0055
70 | TTTGATGGCT | 1.02 ± 0.039
71 | CTTCGGGCGA | 1.1 ± 0.023
72 | TTTTTGCTGC | 0.999 ± 0.024
73 | TGTACTATGC | 1.06 ± 0.058
74 | GAACTCGGCT | 0.959 ± 0.12
75 | CGGTACCGTT | 1.02 ± 0.049

Row | Sequence | switch fluorescence ratio
76 | GGGTCCTTGT | 1.01 ± 0.041
77 | AGGTATCAGA | 0.972 ± 0.021
78 | ATGTATATGC | 1.08 ± 0.069
79 | AGCGGGAGAT | 1.01 ± 0.061
80 | GGGATGAATG | 0.9773 ± 0.0079
81 | TCAATTCGAG | 0.9884 ± 0.009
82 | TTCAGGATA | 1.01 ± 0.033
83 | TGTTATTAGT | 1.01 ± 0.022
84 | TACATGAAGA | 1.02 ± 0.013
85 | AATGGGGGCA | 1.007 ± 0.0076
86 | CTCAAGGTGA | 1.45 ± 0.11
87 | ACTCCTGGTT | 1.01 ± 0.014
88 | AGTTGATGGT | 0.96898 ± 0.00096
89 | ATTATTGGCG | 1.01 ± 0.042
90 | GCGGGGGGAT | 1.02 ± 0.017
91 | CGTGCTATTC | 1.235 ± 0.012
92 | CCGGTTGTTG | 1.027 ± 0.0079
93 | TATTAATTC | 0.972 ± 0.056
94 | CAAGGTCGGC | 1 ± 0.04
95 | AAAAAAGGGT | 1.02 ± 0.021
96 | TTCGGTGGGA | 1.07 ± 0.02
97 | TGATCGTGAG | 1.02 ± 0.017
98 | TTTATGGTAA | 0.9888 ± 0.0024
99 | TTCACTATTT | 1.02 ± 0.028
100 | TCGGGGAGTT | 0.982 ± 0.021

Row | Sequence | switch fluorescence ratio
101 | ATAGGAGCAG | 1.01 ± 0.048
102 | CATTAATGTA | 0.9977 ± 0.0033
103 | CTTCGGGGGA | 0.992 ± 0.01
104 | ACCCTAGACG | 1.03 ± 0.045
105 | CTGGAAAACC | 1.02 ± 0.0058
106 | TCAATGATTT | 0.969 ± 0.022
107 | TCGACCCAGC | 1.104 ± 0.0032
108 | ACGGGATTTC | 1.05 ± 0.028
109 | TGGGGTTGGT | 0.993 ± 0.018
110 | TCATTCGGTT | 1.02 ± 0.016
111 | ATTTCAGTGT | 1.009 ± 0.0044
112 | TAGAGGGTTG | 0.969 ± 0.02
113 | AGTTTATTGG | 0.999 ± 0.0086
114 | TGCTAATAGT | 1.028 ± 0.0074
115 | CGTGGCGCCG | 0.957 ± 0.054
116 | TTTATACCGT | 1.026 ± 0.0028
117 | GCCGTGCGGG | 0.978 ± 0.03
118 | AGGGGCTTTT | 0.998 ± 0.012
119 | AGACCTAAAG | 1.05 ± 0.069
120 | AATAAGGGGA | 1.02 ± 0.077
121 | ATTGGGGAGC | 0.989 ± 0.014
122 | AGAAGTGTTT | 1.022 ± 0.0063
123 | AGTGGGAGTG | 0.983 ± 0.034
124 | GCTGACGGGA | 1.1 ± 0.015
125 | ATAATAGAAT | 0.993 ± 0.025

Row | Sequence | switch fluorescence ratio
126 | ATTTTGAAGC | 0.991 ± 0.016
127 | CCTGTTGGGA | 1.01 ± 0.037
128 | TGGGCGGTCT | 1.03 ± 0.039
129 | GCGTTAACTC | 1.08 ± 0.026
130 | AAGGATTCCA | 0.981 ± 0.014
131 | AGATAGGGAG | 0.9786 ± 0.0031
132 | GTTTGCAGCA | 1.03 ± 0.027
133 | TTATTTCAAC | 0.9728 ± 0.0052
134 | ACTAGTGGTC | 0.992 ± 0.042
135 | ATTGGTGTAG | 0.972 ± 0.023
136 | AGTTAAAACG | 1.02 ± 0.011
137 | GGCGGGGACG | 0.999 ± 0.022
138 | CTATTTCTAC | 1.03 ± 0.046
139 | TACAGGTGTG | 1.24 ± 0.044
140 | TGGGTGTGGT | 1 ± 0.025
141 | TTAACTAGGC | 0.989 ± 0.054
142 | GTTTGATAGA | 0.984 ± 0.027
143 | ATGGTAGGGG | 0.986 ± 0.014
144 | TTTTTAAAGC | 0.995 ± 0.038
145 | GGGGGCCCTT | 1.02 ± 0.043
146 | GCTATATTGG | 0.9933 ± 0.0091
147 | GACAACGTA | 0.9967 ± 0.0095
148 | CAATTGGAAC | 0.99578 ± 8.3e-05
149 | TTTAGATGAG | 0.986 ± 0.053
150 | TGCGGAGGGC | 1.01 ± 0.043

Row | Sequence | switch fluorescence ratio
151 | GAATGGCACA | 0.998 ± 0.016
152 | TTTATGGAAG | 0.988 ± 0.013
153 | TTTTAAATTT | 1.01 ± 0.11
154 | ACAGGAAAAA | 0.976 ± 0.084
155 | CTTATCTGGG | 0.999 ± 0.041
156 | ACCGTTGGGG | 1.04 ± 0.02
157 | CGTTGGGCAG | 0.953 ± 0.099
158 | GGGTAATGTA | 1.02 ± 0.014
159 | TCGTGGCGCT | 0.995 ± 0.048
160 | CCTCTGGGGG | 1.32 ± 0.19
161 | TAAGTGGTCG | 1.03 ± 0.036
162 | GGGAGGGTGG | 0.996 ± 0.06
163 | CAGCTGGTTT | 1.004 ± 0.0077
164 | AGGCGGAGCT | 0.9926 ± 0.0033
165 | TGCTGCGCTT | 1.14 ± 0.081
166 | AGGTAGGACT | 1 ± 0.014
167 | AGGTAGCATG | 1.01 ± 0.066
168 | TACACGTTTT | 1.03 ± 0.021
169 | CACGTGCCAG | 0.985 ± 0.043
170 | AGGCGGGAGG | 1.034 ± 0.0056
171 | TTTATTCTCT | 1.01 ± 0.019
172 | TAGTACTATC | 0.993 ± 0.021
173 | TCAAGTTTGG | 1.02 ± 0.018
174 | TAACTAGGAG | 1.12 ± 0.16
175 | ACTGAGGGTA | 1.04 ± 0.027

Row | Sequence | switch fluorescence ratio
176 | TAAAAAGTAC | 1.02 ± 0.027
177 | AAGGGCGGC | 1.03 ± 0.018
178 | TGCGTCTTTG | 1.01 ± 0.034
179 | TGGGTTACCT | 1.05 ± 0.01
180 | GGGGGCAATT | 0.987 ± 0.021
181 | TAAATTGGTA | 1.04 ± 0.016
182 | GTGTTTGGTG | 1 ± 0.032
183 | GTATTATCTG | 0.9495 ± 0.0038
184 | GAGACGTTTG | 1.02 ± 0.054
185 | TATTTGTGGG | 0.9845 ± 0.0083
186 | TAGCAGGTTA | 1 ± 0.016
187 | TGGGTAGGCG | 1.02 ± 0.016
188 | GTTCACCAAT | 1 ± 0.07
189 | CACCGGGATG | 1.31 ± 0.099
190 | TCTGCTTTTG | 1.05 ± 0.02
191 | AGCTGACTAT | 1.06 ± 0.11
192 | TCCTAGGCGC | 1.126 ± 0.0049
193 | TTAGGAAGTT | 1 ± 0.033
194 | AACCGCGCTT | 1.18 ± 0.083
195 | AGAAGCTGGG | 1 ± 0.03
196 | CATTCTGTGT | 1.019 ± 0.0023
197 | GACAGAGGTG | 1.03 ± 0.031
198 | AAGGTGTTTG | 1.05 ± 0.04
199 | TTGAGAGATT | 1.011 ± 0.0091
200 | GGTTGGTTCT | 1.02 ± 0.078
